Like-named read-outs stand apart in the source and are kept apart here.
Assays:
[1] = tested on: HT29 xenografted nude mice; test: Biodistribution in HT29 tumor-bearing nude mice; type: in vivo, mouse
Description: (§1) For in vivo evaluation of [^68Ga]Ga-TRAP(NT4)3 the NTS1-positive human colorectal adenocarcinoma cells HT29 were injected in nude mice to generate a subcutaneous tumor. The radioligand was injected in the tail vein of the mice and the biodistribution was determined 60 and 90 min after tracer injection. […] The clearance rate of [^68Ga]Ga-TRAP(NT4)3 in these excretion organs was apparently low. […] (1.44 %ID/g). Blocking experiments were performed to confirm the specificity of the tumor uptake of [^68Ga]Ga-TRAP(NT4)3 in vivo. Therefore, TRAP(NT4)3 (20 nmol) or NT4 (100 nmol) were co-injected together with the radiotracer to define the nonspecific uptake of the tracer in the tumor region. […] Apart from the intestine, the uptake in all other organs was not affected by the blocking substances (Table 2), confirming the receptor-mediated uptake of [^68Ga]Ga-TRAP(NT4)3, as it was reported that NTS receptors are expressed in the small intestine of mice.
(§2) All animal experiments were performed in compliance with the protocols approved by the local Animal Protection Authorities (Regierung Mittelfranken, Germany, no. 54-2532.1-15/08). Female athymic NMRI nude mice (nu/nu) were obtained from Harlan Winkelmann GmbH (Borchen, Germany) at four weeks of age and were kept under standard conditions (12 h light/dark) with food and water available ad libitum for at least five weeks. HT29 tumors were generated as described before.
(§3) HT29 xenografted nude mice were injected with [^68Ga]Ga-TRAP(NT4)3 into a tail vein (2.5–7.5 MBq/mouse). The animals were killed by cervical dislocation 60 or 90 min p.i. The tumors, other tissues (lung, liver, kidneys, heart, spleen, brain, muscle, femur, and intestine) and blood were removed and weighed. Radioactivity of the samples was measured using a γ-counter and expressed as the percentage of injected dose per gram of tissue (%ID/g), from which tumor-to-blood ratios were calculated. Blocking experiments were carried out by co-injecting randomly chosen mice with TRAP(NT4)3 (20 nmol/mouse) or NT4 (100 nmol/mouse) together with the radiotracer. These mice were killed by cervical dislocation at 60 min p.i., and organs and tissue were removed, weighed, and counted as described above.

[2] = Biodistribution in HT29 tumor-bearing nude mice; type: in vivo, mouse; conditions: mouse; for tissue uptake at 1.5 h / tissue uptake at 1 h: in vivo
Description: as §1, §2, §3

[3] = Small animal PET imaging of HT29 tumor-bearing mice; conditions: mouse, in vivo, molar radioactivities of more than 20 MBq/nmol, read-out: highest tumor uptake values by PET
Description: The highest tumor uptake values of approximately 2 %ID/g were determined with molar radioactivities of more than 20 MBq/nmol. […] Considering all eight mice, which were repeatedly measured by PET with varying molar radioactivities of [^68Ga]Ga-TRAP(NT4)3, a good correlation of molar radioactivity and tumor uptake could be observed (Figure 4b; r = 0.713, Spearman correlation, p < 0.0004).
PET scans and image analysis were performed using a small-animal PET scanner (Inveon, Siemens Medical Solutions, Erlangen, Germany). About 1.5–4 MBq of [^68Ga]Ga-TRAP(NT4)3 with varying amounts of 0.02–10 nmol TRAP(NT4)3 were intravenously injected into the mice under isoflurane anesthesia (4%). Animals were subjected to a 60 min dynamic scan starting with tracer injection. After iterative maximum a posteriori image reconstruction of the decay- and attenuation-corrected images, regions of interest (ROIs) were drawn over the tumor. The radioactivity concentration within the tumor region was obtained from the mean value within the multiple ROIs and then converted to SUV relative to the injected dose and the individual body weight.

human NTS1 = human NTS1 (Homo sapiens, UniProt P30989); test: Competitive radioligand binding assay, NTS1; conditions: Ki (NTS1, nM), membranes of CHO cells stably expressing human NTS1; mean ± SEM, 4-8 experiments
Description: Receptor binding data were performed as described previously. […] NTS2 binding was conducted using homogenates of membranes from HEK 293 cells transiently transfected with pcDNA3.1 carrying the human NTS2 gene (Missouri S&T cDNA Resource Center (UMR), Rolla, MO, USA) using the Mirus TransIT-293 transfection reagent (MoBiTec, Göttingen, Germany) according to the manufacturer’s protocol.
Data analysis of the competition binding curves from the radioligand displacement experiments was done by non-linear regression analysis when applying the algorithms of the PRISM 6.0 software package (GraphPad Software, San Diego, CA, USA). EC50 values were derived from each dose-response curve and were subsequently transformed into the corresponding Ki values by applying the equation of Cheng and Prusoff. Mean Ki values and the corresponding S.E.M. values (standard error of the mean) were determined by analyzing four to eight individual experiments.

[4] = type: in vivo; conditions: mouse blood sample taken 5 min after injection, HPLC
Description: The in vivo stability of [^68Ga]Ga-TRAP(NT4)3 was measured from a blood sample taken 5 min after injection in mice. […] Unfortunately, it was not possible to determine the stability at later time points due to the low amount of residual radioactivity in the blood.

Sequence of human NTS1 (P30989 whole entry): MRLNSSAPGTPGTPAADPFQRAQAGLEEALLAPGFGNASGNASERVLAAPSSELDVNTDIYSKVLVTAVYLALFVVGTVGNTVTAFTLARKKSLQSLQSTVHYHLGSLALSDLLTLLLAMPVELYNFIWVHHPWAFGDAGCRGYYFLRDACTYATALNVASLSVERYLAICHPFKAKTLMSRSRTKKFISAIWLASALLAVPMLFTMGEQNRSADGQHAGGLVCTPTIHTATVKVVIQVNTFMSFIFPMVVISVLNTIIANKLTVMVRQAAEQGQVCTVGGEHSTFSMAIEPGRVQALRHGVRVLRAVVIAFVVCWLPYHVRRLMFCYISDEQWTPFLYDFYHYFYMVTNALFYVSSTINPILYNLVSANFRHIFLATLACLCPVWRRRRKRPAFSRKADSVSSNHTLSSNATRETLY

In the case of CC(C)C[C@H](NC(=O)[C@@H](NC(=O)[C@H](Cc1ccc(O)cc1)NC(=O)[C@@H]1CCCN1C(=O)[C@H](CCCCN)NC(=O)CN(CCCCN)C(=O)[C@@H](N)CCCCn1cc(CNC(=O)CCP(=O)(O)CN2CCN(CP(=O)(O)CCC(=O)NCc3cn(CCCC[C@H](N)C(=O)N(CCCCN)CC(=O)N[C@@H](CCCCN)C(=O)N4CCC[C@H]4C(=O)N[C@@H](Cc4ccc(O)cc4)C(=O)N[C@H](C(=O)N[C@@H](CC(C)C)C(=O)O)C(C)(C)C)nn3)CCN(CP(=O)(O)CCC(=O)NCc3cn(CCCC[C@H](N)C(=O)N(CCCCN)CC(=O)N[C@@H](CCCCN)C(=O)N4CCC[C@H]4C(=O)N[C@@H](Cc4ccc(O)cc4)C(=O)N[C@H](C(=O)N[C@@H](CC(C)C)C(=O)O)C(C)(C)C)nn3)CC2)nn1)C(C)(C)C)C(=O)O (single isomer, unassigned) [[^68Ga]Ga-TRAP(NT4)3, metal not drawn], the HT29 tumor uptake ([1]; 60 min p.i.) is reported as 1.74 ± 0.21 %ID/g, the “tumor uptake compared to monomeric analogs” value ([1]; HT29 tumor) is reported as “two-fold” and the tissue to tissue ratio at 1 h ([2]; female, athymic NMRI nude (nu/nu), HT29 tumor / blood, iv, total radioactivity, 60 min p.i.) is reported as 13. The tissue to tissue ratio at 1.5 h ([2]; female, athymic NMRI nude (nu/nu), HT29 tumor / blood, iv, total radioactivity, 90 min p.i.) was 36, the SUV at 1 h ([2]; female, athymic NMRI nude (nu/nu), HT29 tumor, iv, total radioactivity, 60 min p.i., equals 1.7 %ID/g) was about 0.7 SUV and the tissue uptake at 1.5 h ([2]; 60 and 90 min p.i., read-out: uptake in the liver) was 11 to 12 %ID/g. The tissue uptake at 1.5 h ([2]; 60 and 90 min p.i., read-out: uptake values in the kidneys) was 55 to 102 %ID/g, the tissue uptake at 1 h ([2]; 60 min p.i., blocking: co-injection of NT4 (100 nmol per mouse), read-out: HT29 tumor uptake) was 0.6 ± 0.13 %ID/g and the tissue uptake at 1 h ([2]; 60 min p.i., blocking: co-injection of NT4 (100 nmol per mouse), read-out: blood uptake) was 0.4 ± 0.01 %ID/g. For the same compound, the tissue uptake at 1 h ([2]; 60 min p.i., blocking: co-injection of NT4 (100 nmol per mouse), read-out: brain uptake) was 0.07 ± 0.02 %ID/g, the tissue uptake at 1 h ([2]; 60 min p.i., blocking: co-injection of NT4 (100 nmol per mouse), read-out: femur uptake) was 1.72 ± 0.12 %ID/g and the tissue uptake at 1 h ([2]; 60 min p.i., blocking: co-injection of NT4 (100 nmol per mouse), read-out: heart uptake) was 0.45 ± 0.13 %ID/g. For the same compound, the tissue uptake at 1 h ([2]; 60 min p.i., blocking: co-injection of NT4 (100 nmol per mouse), read-out: intestine uptake) was 0.49 ± 0.07 %ID/g, the tissue uptake at 1 h ([2]; 60 min p.i., blocking: co-injection of NT4 (100 nmol per mouse), read-out: kidney uptake) was 99.9 ± 15.5 %ID/g and the tissue uptake at 1 h ([2]; 60 min p.i., blocking: co-injection of NT4 (100 nmol per mouse), read-out: liver uptake) was 11.2 ± 2.27 %ID/g. The tissue uptake at 1 h ([2]; 60 min p.i., blocking: co-injection of NT4 (100 nmol per mouse), read-out: lung uptake) was 6.06 ± 1.19 %ID/g, the tissue uptake at 1 h ([2]; 60 min p.i., blocking: co-injection of NT4 (100 nmol per mouse), read-out: muscle uptake) was 0.16 ± 0.03 %ID/g and the tissue uptake at 1 h ([2]; 60 min p.i., blocking: co-injection of NT4 (100 nmol per mouse), read-out: spleen uptake) was 3.75 ± 0.81 %ID/g. The tissue uptake at 1 h ([2]; 60 min p.i., blocking: co-injection of TRAP(NT4)3 (20 nmol per mouse), read-out: HT29 tumor uptake) was 1.1 ± 0.2 %ID/g, the tissue uptake at 1 h ([2]; 60 min p.i., blocking: co-injection of TRAP(NT4)3 (20 nmol per mouse), read-out: blood uptake) was 0.07 ± 0.01 %ID/g and the tissue uptake at 1 h ([2]; 60 min p.i., blocking: co-injection of TRAP(NT4)3 (20 nmol per mouse), read-out: brain uptake) was 0.06 ± 0.07 %ID/g. The tissue uptake at 1 h ([2]; 60 min p.i., blocking: co-injection of TRAP(NT4)3 (20 nmol per mouse), read-out: femur uptake) was 0.74 ± 0.14 %ID/g, the tissue uptake at 1 h ([2]; 60 min p.i., blocking: co-injection of TRAP(NT4)3 (20 nmol per mouse), read-out: heart uptake) was 0.15 ± 0.11 %ID/g and the tissue uptake at 1 h ([2]; 60 min p.i., blocking: co-injection of TRAP(NT4)3 (20 nmol per mouse), read-out: intestine uptake) was 0.49 ± 0.08 %ID/g. It also gave a tissue uptake at 1 h ([2]; 60 min p.i., blocking: co-injection of TRAP(NT4)3 (20 nmol per mouse), read-out: kidney uptake) of 96.3 ± 8.83 %ID/g, a tissue uptake at 1 h ([2]; 60 min p.i., blocking: co-injection of TRAP(NT4)3 (20 nmol per mouse), read-out: liver uptake) of 8.3 ± 0.87 %ID/g and a tissue uptake at 1 h ([2]; 60 min p.i., blocking: co-injection of TRAP(NT4)3 (20 nmol per mouse), read-out: lung uptake) of 1.61 ± 0.42 %ID/g. It also gave a tissue uptake at 1 h ([2]; 60 min p.i., blocking: co-injection of TRAP(NT4)3 (20 nmol per mouse), read-out: muscle uptake) of 0.1 ± 0.05 %ID/g, a tissue uptake at 1 h ([2]; 60 min p.i., blocking: co-injection of TRAP(NT4)3 (20 nmol per mouse), read-out: spleen uptake) of 2.2 ± 0.39 %ID/g and a tissue uptake at 1 h ([2]; 60 min p.i., read-out: HT29 tumor uptake) of 1.7 %ID/g. The tissue uptake at 1 h ([2]; 60 min p.i., read-out: blood uptake) was 0.13 ± 0.02 %ID/g, the tissue uptake at 1 h ([2]; 60 min p.i., read-out: brain uptake) was 0.04 ± 0.01 %ID/g and the tissue uptake at 1 h ([2]; 60 min p.i., read-out: femur uptake) was 1.51 ± 0.12 %ID/g. The tissue uptake at 1 h ([2]; 60 min p.i., read-out: heart uptake) was 0.13 ± 0.02 %ID/g, the tissue uptake at 1 h ([2]; 60 min p.i., read-out: intestine uptake) was 1.5 ± 0.42 %ID/g and the tissue uptake at 1 h ([2]; 60 min p.i., read-out: kidney uptake) was 94.5 ± 10.8 %ID/g. For the same compound, the tissue uptake at 1 h ([2]; 60 min p.i., read-out: liver uptake) was 11.2 ± 0.3 %ID/g, the tissue uptake at 1 h ([2]; 60 min p.i., read-out: lung uptake) was 2.76 ± 0.53 %ID/g and the tissue uptake at 1 h ([2]; 60 min p.i., read-out: muscle uptake) was 0.09 ± 0.03 %ID/g. For the same compound, the tissue uptake at 1 h ([2]; 60 min p.i., read-out: spleen uptake) was 3.72 ± 0.09 %ID/g, the tissue uptake at 1.5 h ([2]; 90 min p.i., read-out: HT29 tumor uptake) was 1.44 ± 0.13 %ID/g and the tissue uptake at 1.5 h ([2]; 90 min p.i., read-out: blood uptake) was 0.04 ± 0.02 %ID/g. For the same compound, the tissue uptake at 1.5 h ([2]; 90 min p.i., read-out: brain uptake) was 0.02 ± 0.01 %ID/g, the tissue uptake at 1.5 h ([2]; 90 min p.i., read-out: femur uptake) was 1.17 ± 0.21 %ID/g and the tissue uptake at 1.5 h ([2]; 90 min p.i., read-out: heart uptake) was 0.35 ± 0.37 %ID/g. For the same compound, the tissue uptake at 1.5 h ([2]; 90 min p.i., read-out: intestine uptake) was 1.31 ± 0.2 %ID/g, the tissue uptake at 1.5 h ([2]; 90 min p.i., read-out: kidney uptake) was 102 ± 29.9 %ID/g and the tissue uptake at 1.5 h ([2]; 90 min p.i., read-out: liver uptake) was 11.7 ± 0.48 %ID/g. The tissue uptake at 1.5 h ([2]; 90 min p.i., read-out: lung uptake) was 2.37 ± 0.21 %ID/g, the tissue uptake at 1.5 h ([2]; 90 min p.i., read-out: muscle uptake) was 0.11 ± 0.08 %ID/g and the tissue uptake at 1.5 h ([2]; 90 min p.i., read-out: spleen uptake) was 3.45 ± 0.38 %ID/g. For the same compound, the tissue uptake [3] was about 2 %ID/g, the Ki (human NTS1) was 0.1 nM and the “formation of a more hydrophilic radiometabolite” value [4] was 8%.
